From patent US10683486B2, “Methods for producing hepatocytes” (BioLamina AB, priority 2015, dated 2020)

How the values were obtained:
Type in all cases: cell-based, human
[1] = test system: endoderm and hepatic cells differentiated from H9 hESCs; experiment: Immunostaining of endoderm and hepatoblast markers (hepatoblast specification)
Experimental: H9 human embryonic stem cells (hESCs) were cultured and maintained in a humidified 37° C., 5% CO2 incubator. Three different substrates were then prepared in 96-well plates. The first substrate was pre-coated with Matrigel® (MG), and served as a control. The second substrate was coated with 5 micrograms per square centimeter (μg/cm^2) of laminin-521 (LN-521).
(§1) Differentiation was initiated at 40% confluence, by replacing serum-free medium mTESR1 (Stem Cell Technologies) with endoderm differentiation medium—RPMI 1640 containing 1×B27 (Life Technologies), 100 ng/mL Activin A (PeproTech) and 50 ng/mL Wnt3a (R&D). The medium was changed every 24 hours, for 72 hours. On day 4, endoderm differentiation medium was replaced with hepatoblast differentiation medium, and this was renewed every second day for a further five days. The medium consisted of KO-DMEM (Life Technologies), Serum Replacement (Life Technologies), 0.5% Glutamax (Life Technologies), 1% non-essential amino acids (Life Technologies), 0.2% β-mercaptoethanol (Life Technologies) and 1% dimethyl sulofxide (Sigma) for 5 days. At Day 9, differentiating cells were cultured in hepatocyte maturation medium HepatoZYME (Life Technologies) containing 1% Glutamax (Life Technologies), supplemented with 10 ng/mL hepatocyte growth factor (Peprotech) and 20 ng/mL oncostatin m (Peprotech).
(§2) Immunocytochemistry analysis was subsequently performed on hESC-derived hepatocytes. Cell cultures were fixed in 100% ice-cold methanol at −20 degrees Celsius for 30 minutes, and adjacent cells were pre-washed twice with PBS buffer at room temperature. Cell monolayers were blocked with 0.1% PBS-Tween solution containing 10% bovine serum albumin for 1 hour. Subsequently, the monolayers were incubated with primary antibodies diluted in PBS-0.1% Tween/1% BSA at 4 degrees Celsius overnight. After 24 hours, the primary antibodies were removed and the fixed monolayers were washed three times with PBS-0.1% Tween/1% BSA. Cells were incubated with appropriate secondary antibodies diluted in PBS-0.1% Tween/1% BSA for one hour at room temperature and washed with three times with PBS. Cultures were then mounted with PermaFluor™ Aqueous Mounting Medium and counterstained with NucBlue Hoescht 33342. The cells were imaged with the Zeiss Axio Observer Z1 microscope with LD PlanNeoFluar objective lenses, and a Zeiss AxioCamMR3 camera was used for image acquisition. The images were processed through Zeiss Axiovision SE 64 Rel 4.8 and analyzed using Zeiss Axiovision version 4.9.1.0. The percentage of positive cells and standard deviation was estimated from at least five random fields of view.
Next, the efficiency of the differentiation process was measured. FIG. 4 is a set of 15 photomicrographs of endoderm and hepatic cells grown on the three different substrates, 10× or 20× magnification (indicated by scale), on day 3 of differentiation.
FOXA2 was expressed on all substrates at day 3. […] SOX17 staining was more varied across the three substrates; it was lowest on MG and highest on LN-521. As cell differentiation progressed and hepatic fate was specified, cells began expressing high levels of hepatoblast markers. AFP, HNF4a, and CK19 were expressed in the majority of cells on all three substrates. […] As shown, hepatoblast specification on all three matrices appeared equivalent and highly efficient.

MAN12 cells = experiment: Immunostaining of ALB and CYP3A in MAN12 derived cells (Example 4); settings: MAN12, Day 24 of differentiation, Cameron protocol
Experimental: MAN12 cells, a GMP grade cell line, were plated on three different substrates. The first substrate was Matrigel® (MG), and served as a control. The second substrate was coated with 5 micrograms per square centimeter (μg/cm^2) of laminin-521 (LN-521). […] The cells were then differentiated according to the Cameron protocol.
FIG. 14 is a set of 15 photomicrographs at 10× magnification, organized into three columns and five rows, taken on Day 24 of differentiation. […] Row A is a set of phase contrast images of morphology. The scale bars are 200 μm. Row B is a set of photomicrographs showing the immunofluorescent staining of albumin (ALB) on the three different matrices. Row C is a set of photomicrographs showing the immunofluorescent staining of cytochrome P450 3A (CYP3A). Row D is a set of photomicrographs showing the immunofluorescent staining of multidrug resistance protein 1 (MRP1). Row E is a set of photomicrographs showing immunoglobulin G control staining for sheep, mouse, and rabbit antisera.
FIG. 15 is a set of four bar graphs. The first row of two graphs show hepatocyte protein secretion for alpha fetoprotein and albumin as analyzed by ELISA on day 24 of differentiation (n=3). No significant differences were observed across the three matrices. The second row of two graphs show the metabolic function of CYP p450 activity on days 18, 20, and 24 for CYP1A2 and CYP3A activity.

hESC-derived hepatocytes [2] = experiment: Biliary efflux of CDFDA; settings: 2 μM CDFDA for 30 minutes; versus the MG substrate
Experimental: To determine whether these cells were capable of biliary efflux, cells were treated with 5(6)-carboxy-2′,7′-dichlorofluorescein diacetate (CDFDA), which was metabolised to fluorescent CDF and effluxed by multidrug resistance associated protein 2 (MRP2). hESC-derived hepatocytes were incubated with 2 μM of 5(6)-carboxy-2′,7′dichlorofluorescein diacetate (CDFDA) for 30 minutes. Cultures were then washed with ice-cold PBS containing calcium and magnesium. Cells were either collected for imaging or retained for quantification of efflux. For fluorescent quantification, hepatic maturation was replaced and cells incubated at 37 degrees Celsius for 30 minutes. The efflux of CDFDA from cells into media was measured by fluorescence spectroscopy at […] using a FLUOStar Omega multi-mode microplate reader.
The results are shown in the bottom row (C) of photomicrographs.

hESC-derived hepatocytes [3] = experiment: Immunostaining of hepatocyte markers and cytochrome P450 expression (hepatocyte maturation)
Experimental: as §1, §2
Post-hepatoblast specification, cell cultures were differentiated toward hepatocytes. Hepatocyte specification was assessed by immunostaining for albumin (ALB), E-cadherin (E CAD), cellular proliferation marker (Ki67), cytochrome p450 2D6 (CYP2D6), and cytochrome p450 3A4 (CYP3A4).
FIG. 5 is a set of nine photomicrographs of hepatic cells on day 18 of differentiation.
Given that cell organisation and cell division are important factors in hepatocyte function, hepatocyte metabolic capacity in vitro was studied. Stem cell derived hepatocytes were first examined for cytochrome P450 expression using well characterised antisera. CYP3A and CYP1A2 activity were measured from days 16-26 using pGlo technology. CYP activity was expressed as relative light units (RLU) per milliliter of media per milligram of protein. Levels of significance were measured by student t-test.
FIG. 6 is a set of six photomicrographs and two bar graphs of gene expression in hepatic cells.

For “LN-521: substrate coated with 5 μg/cm^2 of laminin-521, the protein formed by joining α5, β2 and γ1 chains”, the “AFP, percentage of positive cells and standard deviation” value ([1]; day 3 of differentiation) was 98.3% ± 0.9, the “CK19, percentage of positive cells and standard deviation” value ([1]; day 3 of differentiation) was 98.5% ± 1.0 and the “FOXA2, percentage of positive cells and standard deviation” value ([1]; day 3 of differentiation) was 80.4% ± 3.5. For the same substance, the “HNF4A, percentage of positive cells and standard deviation” value ([1]; day 3 of differentiation) was 86.4% ± 2.3, the “SOX17, percentage of positive cells and standard deviation” value ([1]; day 3 of differentiation) was 92.6% ± 1.8 and the “increase in cell size of differentiated hepatocytes” value ([1]; see CK19 photomicrographs) was “approximately 2 fold”. For the same substance, the “ALB, percentage of positive cells and standard deviation” value (MAN12 cells) was 83.3% ± 8.5, the “CYP3A, percentage of positive cells and standard deviation” value (MAN12 cells) was 81.5% ± 8.6 and the biliary efflux (hESC-derived hepatocytes [2]) was “more active biliary efflux”. For the same substance, the “Albumin, percentage of positive cells and standard deviation” value (hESC-derived hepatocytes [3]; day 18 of differentiation) was 89.5% ± 8.7, the “E CAD, percentage of positive cells and standard deviation” value (hESC-derived hepatocytes [3]; day 18 of differentiation) was 67.4% ± 4.4 and the “Ki67, percentage of positive cells and standard deviation” value (hESC-derived hepatocytes [3]; day 18 of differentiation, proliferation marker) was 17.4% ± 6.2. For the same substance, the “CYP2D6, percentage of positive cells and standard deviation” value (hESC-derived hepatocytes [3]; immunostaining, FIG. 6) was 85.7% ± 5.7 and the “CYP3A, percentage of positive cells and standard deviation” value (hESC-derived hepatocytes [3]; immunostaining, FIG. 6) was 91.3% ± 3.7.
